Biological target: the molecule itself
Assay: cryo-EM structure

B1: B subunit of Stx2a ([change]), pentameric (natural protein)
chain: ADCAKGKIEFSKYNEDDTFTVKVDGKEYWTSRWNLQPLLQSAQLTGMTVTIKSSTCESGSGFAEVQFNND
stoichiometry N: 5

From article PMC9823235 (The Journal of Biological Chemistry, 2022)
